The source of these data is PMC4987513, “Phytochrome B and REVEILLE1/2-mediated signalling controls seed dormancy and germination in Arabidopsis”.

Holding throughout (conditions): protein: recombinant; tags: His; blunt
The target of data set [1] is T1, HIS-RVE1 (Arabidopsis thaliana, UniProt F4KGY6 1-387). The data set can be described thus: competition; unlabelled 50x excess vs biotin-E4 probe; no effect on shift; LightShift Chemiluminescent EMSA Kit (Pierce) per manufacturer, 5% polyacrylamide gel; buffer, salt, pH and temperature not stated. In general terms: A gel shift assay detects complexes by their altered migration in electrophoresis.
T1 sequence (F4KGY6 whole entry): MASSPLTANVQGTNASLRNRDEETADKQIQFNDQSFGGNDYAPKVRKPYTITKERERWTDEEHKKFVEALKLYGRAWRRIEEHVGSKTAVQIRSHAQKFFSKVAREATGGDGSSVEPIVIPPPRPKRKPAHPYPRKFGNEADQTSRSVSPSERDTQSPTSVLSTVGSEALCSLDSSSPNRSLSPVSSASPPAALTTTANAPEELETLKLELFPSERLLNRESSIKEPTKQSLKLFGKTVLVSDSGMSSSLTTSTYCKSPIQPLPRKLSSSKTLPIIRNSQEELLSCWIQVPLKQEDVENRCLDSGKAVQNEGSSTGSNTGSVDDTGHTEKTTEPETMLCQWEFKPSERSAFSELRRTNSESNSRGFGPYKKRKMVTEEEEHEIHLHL

The target in data set [2] is T1, HIS-RVE1. The data set can be described thus: competition; unlabelled 50x excess vs biotin-E3 probe; no effect on shift; LightShift Chemiluminescent EMSA Kit (Pierce) per manufacturer, 5% polyacrylamide gel; buffer, salt, pH and temperature not stated.
Data set [3] concerns the target T1, HIS-RVE1. Kind of data set: EMSA; LightShift Chemiluminescent EMSA Kit (Pierce) per manufacturer, 5% polyacrylamide gel; buffer, salt, pH and temperature not stated.

B1: GA3ox2 E4 (3 copies) mutant (dsDNA)
DNA 1: AAGTACGTCTCAGTACCAAAAAGTACGTCTCAGTACCAAAAAGTACGTCTCAGTACCAAA
DNA 2: TTTGGTACTGAGACGTACTTTTTGGTACTGAGACGTACTTTTTGGTACTGAGACGTACTT
In the case of B1, the binding result with HIS-RVE1 [1] is “no binding”.

B2: GA3ox2 E3 (3 copies) mutant (dsDNA)
DNA 1: GTTTAACGGGATAGGTTTTTGTTTAACGGGATAGGTTTTTGTTTAACGGGATAGGTTTTT
DNA 2: AAAAACCTATCCCGTTAAACAAAAACCTATCCCGTTAAACAAAAACCTATCCCGTTAAAC
Turning to B2, in the data set with HIS-RVE1 [2], the binding result is “no binding”.

B3: GA3ox2 E4 (3 copies) WT (dsDNA)
DNA 1: AAGTATCATATCATACCAAAAAGTATCATATCATACCAAAAAGTATCATATCATACCAAA
DNA 2: TTTGGTATGATATGATACTTTTTGGTATGATATGATACTTTTTGGTATGATATGATACTT
As to B3, in the data set with HIS-RVE1 [3], the binding result is “binds”.

B4: GA3ox2 E3 (3 copies) WT (dsDNA)
DNA 1: GTTTAACGATATTAGTTTTTGTTTAACGATATTAGTTTTTGTTTAACGATATTAGTTTTT
DNA 2: AAAAACTAATATCGTTAAACAAAAACTAATATCGTTAAACAAAAACTAATATCGTTAAAC
Consider B4, for which the binding result in the data set with HIS-RVE1 [3] was “binds”.
